Measured values taken from the supplement of paper PMC9170038.

Test system: MS2 coat protein
Assay: apparent KD of MS2 coat protein; designed switch direction (-1 OFF switch, 1 ON switch): -1; higher = weaker reporter binding
Outline: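 On Illumina chips, designed RNA switches with common flanks were made by stalled E. coli RNA polymerase. Titrations with SNAP-549-labelled MS2 coat protein, doubling from 0.7 or 1.5 nM to 3 µM, were done with no input, with 200 uM small-molecule ligand, or with an oligonucleotide input. Apparent KD is the median per design over clusters, from curve fits of normalised cluster fluorescence.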

[1] = Eterna round: R95, input ligand: microRNA oligo, concentration not stated
[2] = input ligand: microRNA oligo, concentration not stated
[3] = Eterna round: R95, input ligand: FMN 200 uM
[4] = Eterna round: R95, input ligand: none

Sequence	apparent KD of MS2 coat protein [1] [nM]	apparent KD of MS2 coat protein (input ligand: FMN 200 uM) [nM]	apparent KD of MS2 coat protein [2] [nM]	apparent KD of MS2 coat protein (input ligand: none) [nM]	apparent KD of MS2 coat protein [3] [nM]	apparent KD of MS2 coat protein [4] [nM]
UUUGAUGUUGAGGAUAUGCUUUUUUUUAUUAUAGCAGAAGGCGAUACAUGAGGAUCACCCAUGUUCAUGGCUUU [JR_E6_Sub098] (puzzle: Exclusion 6)	14.1					
UUUAUAUAUGAAGGAUAUACUUAACAUGAGGAUCACCCAUGUGGUGUUGUGAGUGAGUGAGUUUAGUAGAAGGUCAAUGAUUUU [JMF's solution 70] (Eterna round: R96, puzzle: Exclusion NG 2)		810	306	360		
GCGCGAAGGUAGGAUAUCGACGGAUCUUCCGGCCGAGAAGGACCCACAUGAGGAUCACCCAUGUGGUGAUCCUG [eternacac ex6r4 sub10] (Eterna round: R97, puzzle: Exclusion 6)		17.5		16.5		
ACAAGCUUGUAAUGACUUAACAUGAGGAUCACCCAUGUAAAUGGAAGAACCAACUUGAUAUGAUUUACUCGUCUUAU [JR_STOV1_Sub010] (Eterna round: R97, puzzle: Sensor, turn-off variant 1)		1140		1030		
CUCUUGUCAGGAUAUCAACGCCGCCCACACGGGCGGCGAAAUGAGAAGGGACAUGAGGAUCACCCAUGUUAAAA [Orsoesarqu] (puzzle: Exclusion 4)	133				20.3	212
AGCUGUGGCCGAGGAUAUCUACAUGAGGAUCACCCAUGUGGGUGAAAUAUCGGGAAAACCUCGAUGGAGAAGGCGGUCUCAGCA [Eli eng2 - 046] (Eterna round: R96, puzzle: Exclusion NG 2)		849	234	263		
GUCGGACAUGAGGAUCACCCAUGUGAGGAUAUCCUUUAGAGCUAUUAGUAGAUGCUUAGGAGAAGGCACUAGGG [Eternabot (L2) Solution 17] (Eterna round: R97, puzzle: Exclusion 1)		93.9		314		
AGAAGUAGAAACCGAUCCUACAUGAGGAUCACCCAUGUAGCAAGACGUGCACGCGAAGCUCGUCAGACUACCAGAAG [solution 24] (Eterna round: R96, puzzle: Sensor v2, turn-off variant)		462	288	345		
ACAUGAGGAUCACCCAUGUUCGGCUGGUCCGUCUCGGCUGUCGAGGAUAUAGUUCGGUGUCCGCGCUAGAAGGCGGGAGCUGGC [Aenatbe mod 65] (Eterna round: R96, puzzle: Exclusion NG 3)		34.1	29.4	42.6		
UAUUAGCAAGUGAGAUCCGACAUGAGGAUCACCCAUGUGCUCGUCUUAUAAGGUACUGUGACAAAAGUCACGGUACC [Elimod 2 - Jieux - Sensor, turn-off variant 1] (Eterna round: R97, puzzle: Sensor, turn-off variant 1)		200		283		
AAUAAGGUAGGAUAUACAUGAGGAUCACCCAUGUCCCACCCGUUACCUAUGACCAUAUGUAGAAGGACCAAUAA [Exy#1] (Eterna round: R97, puzzle: Exclusion 3)		20		21.3		
GAAAAGUGAGGAUAUGGUAAAAGAAGAAGAAGAAGAAAACUCCAGAAGGCACAUGAGGAUCACCCAUGUGAAAG [salish99_ex4_r3_008] (puzzle: Exclusion 4)	17.1				17	16.5
ACGCCGCAAGGAUAUCGUAAAGCAGACAUGAGGAUCACCCAUGUGAUAUCAUAAAGGCCACGAGAAGGUGCACAAG [Quoredin] (puzzle: Exclusion 5)	21.2				35.8	24.5
GGCUUGCUAGUAGGAUAUCGCUUGUACAUGAGGAUCACCCAUGUGUGAUAUGCCUACAUAGUGCGUGAGAAGGACUGCAAGCCG [Diatdiinin] (Eterna round: R96, puzzle: Exclusion NG 2)		23.2	8.15	14.1		
GAGCCUAAUGUAGGAUAUCGAGGUCGGUGACGUCGAGAAGGACAUGAGGAUCACCCAUGUCGUAGCGGCGGGAACGCUGCUACG [first try -36 kcal] (Eterna round: R96, puzzle: Exclusion NG 1)		82.9	147	274		
UAUUAGCAAGCGAGAUCCCACAUGAGGAUCACCCAUGUAAUAAAAGCAUCCAGAAUUACUGGGUGCGCUCGUCUUAU [Winner reversed engineered 14] (Eterna round: R97, puzzle: Sensor, turn-off variant 1)		47.7		49.5		
UUGAACAUAGGAUAUAGUUGUUUGUACAUGAGGAUCACCCAUGUUAUGUAUGUUUUGUUUCUAGAAGGAUGUUGAU [JR_E5_Sub002] (puzzle: Exclusion 5)	32.5					

Sequence	apparent KD of MS2 coat protein [1] [nM]	apparent KD of MS2 coat protein (input ligand: FMN 200 uM) [nM]	apparent KD of MS2 coat protein [2] [nM]	apparent KD of MS2 coat protein (input ligand: none) [nM]	apparent KD of MS2 coat protein [3] [nM]	apparent KD of MS2 coat protein [4] [nM]
GAUUAACAUGAGGAUCACCCAUGUGAGGAUAUGGACUUGCCCACUUAACCAUUAGAGUCUAGAAGGCGCAUCUG [1986#25] (Eterna round: R97, puzzle: Exclusion 1)		32.9		29.8		
UUGAUGUCAUCAGGAUAUAGUAUUUAAGACAUAUCUUCUUUCAAACAUGAGGAUCACCCAUGUCGCUAGAAGGGAUGAUUGAUU [JR_ExcNG2_Sub084] (Eterna round: R96, puzzle: Exclusion NG 2)			11.9			
UUUAAUUUUUUUUUUUUACAAGCUUUUUGCUCGUCUUAUACAUGAGGAUCACCCAUGUAGGUGGGAAGUAAAUUAUC [JMF 57] (puzzle: Sensor v3, turn-off variant 2)	97.5				33	37.5
UGGGUUCUCCAUAGAAGUAACAUGAGGAUCACCCAUGUAGGGCAAGUUUUUUGUUCGUCAUAGGCUGUGGAUUUGGA [JR_SV3TOV1_Sub020] (puzzle: Sensor v3, turn-off variant 1)	170				90.8	133
UGUUGUUCAGGAUAUGAUGUAUAAUACAUGAGGAUCACCCAUGUAGAUCCUGCUUUGGCGUCAGAAGGGAAUGUUG [salish99_ex5_r4_107] (Eterna round: R97, puzzle: Exclusion 5)		55.9		51.8		
CAGUACUGAGGAUAUACAUGAGGAUCACCCAUGUGUUUUCUAUUAGGAAACUAGUUAUGUAGAAGGCAGUACUG [Omei Ex3 Mod of Eli 4.27 v11] (Eterna round: R97, puzzle: Exclusion 3)		304		40		
GUCAGACGAGGAUAUAGAUUUGAUAACAUGAGGAUCACCCAUGUGAUCGAUAGAUCAGAUUUAGAAGGUGUCUGAC [E5/8-B3] (Eterna round: R97, puzzle: Exclusion 5)		403		331		
GGAUUACAUGAGGAUCACCCAUGUGAGGAUAUCGAUGUCCAGUAAUACGUGCGGGACUCGAGAAGGCACUUGGA [salish99-ex1-70] (Eterna round: R96, puzzle: Exclusion 1)		432	80.7	96.3		
AUGGUACAUGAGGAUCACCCAUGUUAGGAUAUCGCGUGUUCUAAAACUAAGAGACACACGAGAAGGGACGACAU (puzzle: Exclusion 1)	67.8				51.5	71.4
GGGCUGUCAGGAUAUGUGUGUGUGUGUGAAAGCGCGCGCGCGCAGAAGGGACAUGAGGAUCACCCAUGUGGCCC [-35.3, -34.3 kcal, A 20%, 6bis-0] (Eterna round: R97, puzzle: Exclusion 4)		32.1		33		
CGUACUGAAGUGAGGAUAUUGUCUCGGAUACGAAACAAGAAGGCACAUGAGGAUCACCCAUGUAGACAGUACGA [Malc #30 mod 2] (puzzle: Brourd's mod of Exclusion 4)	17.3				15.1	15.7
UUUAAGGUAAUUAAGAUCACAUGAGGAUCACCCAUGUAUAUAUAGGAUAUCAGCUCGAUUAGAGCUGAGAAGGAUAUAUACAUA [ExNG3/6-C1] (Eterna round: R96, puzzle: Exclusion NG 3)		66.1	33.3	142		
AUAUUGUGAGGAUAUGAACUUAGUAUCGAAAGAAACUAAGUUCAGAAGGCACAUGAGGAUCACCCAUGUUUCUC [Long static hairpin v10] (Eterna round: R97, puzzle: Exclusion 4)		566		63.2		
AUAAUACAUGUAGGAUAUCUGCACGUUUAGUGCAGAGAAGGACAUGAGGAUCACCCAUGUAAUUAAGAUCAAUUAUUAAAUUAU [ENG1/3-D2] (Eterna round: R96, puzzle: Exclusion NG 1)		293	54.7	66.2		
UAUGAUUUAGGAUAUUGUACUGCUGACAUGAGGAUCACCCAUGUAUGCUAACUCGGCCGUCGAGAAGGAGAUUAUG [BotMod 29 - Jieux - Exclusion 5] (Eterna round: R97, puzzle: Exclusion 5)		37.9		39.4		
CUUAAGUUAGGAUAUGCGCUACGGAAUCGUGGUUAUAGAUAGCAGAAGGAACUUGAGGAUCACCCAAGUAAAUA [Reerored] (Eterna round: R97, puzzle: Exclusion 4)		116		137		
